# Data from US20210388105A1 (ELPISCIENCE SUZHOU BIOPHARMA, published 2021).
# T1: human CD39 (full length, on cells) (human, UniProt P49961 1-510)
# T1 construct: Recombinant on CHOK1-hCD39 cells or natural on SK-MEL-28, SK-MEL-5 and MOLP-8 cells; the cell line is named under assay; also called hCD39; ENTPD1
# T1 sequence: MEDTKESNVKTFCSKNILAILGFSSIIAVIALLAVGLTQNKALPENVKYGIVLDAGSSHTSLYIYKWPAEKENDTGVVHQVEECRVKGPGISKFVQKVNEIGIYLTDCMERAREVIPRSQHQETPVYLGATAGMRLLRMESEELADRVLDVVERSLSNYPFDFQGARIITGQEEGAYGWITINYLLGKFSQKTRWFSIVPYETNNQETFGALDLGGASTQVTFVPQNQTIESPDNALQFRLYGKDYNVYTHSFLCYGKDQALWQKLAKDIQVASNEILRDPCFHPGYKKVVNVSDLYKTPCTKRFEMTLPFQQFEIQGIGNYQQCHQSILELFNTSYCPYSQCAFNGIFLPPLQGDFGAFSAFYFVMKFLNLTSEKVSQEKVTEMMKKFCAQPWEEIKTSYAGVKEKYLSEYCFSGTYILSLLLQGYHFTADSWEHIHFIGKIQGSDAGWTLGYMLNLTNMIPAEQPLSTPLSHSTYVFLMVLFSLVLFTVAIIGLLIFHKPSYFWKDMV
# T2: human CD39 (protein; form not stated) (human, UniProt P49961 38-478, limits assumed)
# T2 construct: also called ENTPD1; ENTPDase 1
# T2 sequence: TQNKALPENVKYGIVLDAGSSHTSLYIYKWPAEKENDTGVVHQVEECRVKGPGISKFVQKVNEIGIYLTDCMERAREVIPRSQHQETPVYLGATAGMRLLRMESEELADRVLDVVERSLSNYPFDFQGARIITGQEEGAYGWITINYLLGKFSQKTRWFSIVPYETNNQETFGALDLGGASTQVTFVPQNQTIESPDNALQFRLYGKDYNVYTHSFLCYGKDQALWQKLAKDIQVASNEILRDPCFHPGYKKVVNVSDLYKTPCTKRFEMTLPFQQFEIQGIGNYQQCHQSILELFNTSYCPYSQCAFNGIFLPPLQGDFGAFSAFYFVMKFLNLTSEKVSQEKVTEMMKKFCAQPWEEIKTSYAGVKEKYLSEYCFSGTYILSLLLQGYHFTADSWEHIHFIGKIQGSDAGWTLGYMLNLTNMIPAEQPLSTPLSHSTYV
# B1: Antibody 9-8B (antibody, V domains shown)
# VH: QIQLVQSGPELKKPGETVKISCKASGYTFTHYGMNWVKQAPGKGLKWMGWINTYTGELTYADDFKGRFAFSLETSASTAYLQINNLKNEDTATYFCARRAYYRYDYVMDYWGQGTSVTVSS
# VL: DIVMTQSQKFMSTSVGDRVSVTCKASHNVGTNVAWYQQKPGQSPKALIYSASYRYSGVPGRFTGSGSGTDFTLTISNVQSEDLAEYFCHQYNNYPYTFGGGTKLEIK
# B2: hu23.H5L5 (antibody, V domains shown)
# VH: QVQLVQSGAEVKKPGASVKVSCKASGYNLKDTFLHWVRQAPGQGLEWMGRIDPANGNIKYDPKFQGRVTITADTSANTAYMELISLRSEDTAVYYCANSPYYYGSGYRIFDVWGQGTTVTVSS
# VL: QIVLTQSPATLSLSPGERATLSCSAFSSVNYMHWYQQKPGQAPRLLIYTTSNLASGIPTRFSGSGSGTSYTLTISSLEPEDFAVYYCQQRSTYPFTFGQGTKLEIK
# notes: humanized c23
# B3: mAb14 (antibody, V domains shown)
# VH: EVKLEESGGGLVQPGGSMKLSCVASGFTFSKYWMNWVRQSPEKGLEWVAEIRLKSNKYGTHYAESVKGRFTISRDDSKNNVYLQMNNLRPEDTGIYYCTTQLDLYWFFDVWGAGTTVTVSS
# VL: DIVMTQSPAILSVTPGDRVSLSCRASQSISDYLHWYQQKSHESPRLLIKYASQSISGIPSRFSGSGSGSNFTLSINSVEPEDVGVYFCQNGHSLPLTFGAGTKLELR
# notes: mouse hybridoma antibody
# B4: Antibody T895 (antibody, V domains shown)
# VH: EVQLQQSGPELVKPGASVKMSCKASGYTFTDYNMHWVKQSHGRTLEWIGYIVPLNGGSTFNQKFKGRATLTVNTSSRTAYMELRSLTSEDSAAYYCARGGTRFAYWGQGTLVTVSA
# VL: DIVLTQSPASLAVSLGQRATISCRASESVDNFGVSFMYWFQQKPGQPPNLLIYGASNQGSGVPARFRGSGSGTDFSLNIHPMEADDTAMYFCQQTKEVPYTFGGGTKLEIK
# notes: also called 31895
# Legend:
# [1] = molecular target: T1, human CD39 (full length, on cells); assay: FACS competition on CHOK1-hCD39; competitor mAb21-Alexa488
# Experimental: Anti-CD39 antibodies were labeled using Alex488 labeling kit and were diluted in a series of concentrations, before mixing with CHOK1-hCD39 cells to test binding EC₅₀using FACS. The non-labeled antibodies were tested for their blocking efficacy to the labelled ones. Briefly, mononuclear CHOK1-hCD39 cells were prepared to 2×10⁶/ml and plated into 96 well at 50 μl/well, then mixed with antibodies gradients to final volume at 100 μl, and then equal volume of Alex488 label antibodies were added at two folds EC80 concentration. 96 well plates were incubated at 4° C. for 1 hour, and spun down and washed 3 times with 200 μl FACS buffer. The FACS analysis was performed on FACScelesta machine and data was analyzed by Flowjo software. The blocking percentages were calculated and those having above 80% competition rate were allocated into one epitope group, compared with the non-competing well (Alex488 labeled antibody only).
# Based on the competition results, the 4 anti-CD39 hybridoma antibodies (mAb14, mAb19, mAb21, mAb23) can be grouped into 4 different epitope groups, as shown in Table 11.
# [2] = molecular target: T1, human CD39 (full length, on cells); assay: FACS, MOLP-8 cells
# Experimental: (§1) Similarly, human CD39 expressing cells SK-MEL-5, SK-MEL-28 or MOLP-8, were incubated with a gradient concentration of anti-CD39 antibodies for 30 minutes at 4° C. Cells were washed 3 times using FACS buffer and next incubated with fluorescence labelled secondary antibody (goat-anti-mouse IgG or goat anti-human IgG) for 30 minutes at 4° C. Cells were washed 3 times and then re-suspended in FACS buffer and analyzed by flow cytometry analysis on BD Celesta. Data plotted and analyzed using GraphPad Prism 8.02.
# (§2) Binding affinity of the humanized antibodies hu23.H5L5 and hu14.H1L1 were tested on different cells by FACS following the similar method as described in Example 3.2.
# (§3) Reference antibodies T895 and 1394 were tested in parallel as control antibodies. As shown in FIG. 12 and summarized in Table 23, both antibodies hu23.H5L5 and hu14.H1L1 bound to human and cynomolgus CD39 expressing cells in a dose-dependent manner and with similar affinity by EC₅₀ at a sub-nanomolar or nanomolar level. Neither of them recognized mouse CD39 in the FACS study. Maximum signal (mean fluorescence intensity, MFI) differed between cells for each antibody may result from their different expression level.
# [3] = molecular target: T1, human CD39 (full length, on cells); assay: FACS, SK-MEL-5 cells
# Experimental: as §1, §2, §3
# [4] = molecular target: T1, human CD39 (full length, on cells); assay: cell-based or functional assay
# [5] = molecular target: T2, human CD39 (protein; form not stated); assay: Octet (BLI)
Binder,blocking percentage [1],EC50 [2],EC50 [3],ATPase activity inhibition IC50 on MOLP-8 cells [4],ATPase activity inhibition IC50 on SK-MEL-5 cells [4],Kd [5]
B1,16%,–,–,–,–,–
B2,–,0.14 nM,0.69 nM,0.33 nM,0.07 nM,–
B3,10%,–,–,–,–,0.24 nM
B4,–,0.11 nM,0.21 nM,0.51 nM,0.09 nM,–
